Eleven substances from patent publication US20230135471A1, “UBIQUITIN VARIANTS WITH IMPROVED AFFINITY FOR 53BP1” (Integrated DNA Technologies, Inc., priority 2021, published 2023) can be followed below.

This assay deals with 53BP1 fragment (a.a. 1221-1718) fused to an adenylate cyclase fragment (two-hybrid) (UniProt Q12888). Briefly: cell-based or functional assay.
“i53 + S49M two-hybrid fusion (designed binder)” returned an Experiment 1 Average Enrichment of 0.84 log2, an Experiment 1 Rep 1 Enrichment of 1 log2, an Experiment 1 Rep 2 Enrichment of 0.69 log2 and an Experiment 2 Average Enrichment of 0.77 log2. The substance further had an Experiment 2 Rep 1 Enrichment of 0.57 log2 and an Experiment 2 Rep 2 Enrichment of 0.98 log2.

“i53 + R42F two-hybrid fusion (designed binder)” displayed an Experiment 1 Average Enrichment of 1.88 log2, an Experiment 1 Rep 1 Enrichment of 1.99 log2, an Experiment 1 Rep 2 Enrichment of 1.77 log2 and an Experiment 2 Average Enrichment of 1.26 log2. Besides, the Experiment 2 Rep 1 Enrichment stood at 1.4 log2 and the Experiment 2 Rep 2 Enrichment is 1.13 log2.

As to “i53 + P38C two-hybrid fusion (designed binder)”, the Experiment 1 Average Enrichment was determined as 1.52 log2, the Experiment 1 Rep 1 Enrichment amounted to 1.21 log2, the Experiment 1 Rep 2 Enrichment came to 1.83 log2 and the Experiment 2 Average Enrichment is 0.52 log2. The substance also showed an Experiment 2 Rep 1 Enrichment of 0.46 log2 and an Experiment 2 Rep 2 Enrichment of 0.57 log2.

Take “i53 + N25Q two-hybrid fusion (designed binder)”: the Experiment 1 Average Enrichment was determined as 0.72 log2, the Experiment 1 Rep 1 Enrichment was 0.24 log2, the Experiment 1 Rep 2 Enrichment stood at 1.21 log2 and the Experiment 2 Average Enrichment amounted to 0.18 log2. The substance also yielded an Experiment 2 Rep 1 Enrichment of 0.15 log2 and an Experiment 2 Rep 2 Enrichment of 0.22 log2.

With “i53 + R54K two-hybrid fusion (designed binder)”, the Experiment 1 Average Enrichment was found to be 0.3 log2, the Experiment 1 Rep 1 Enrichment was 0.07 log2, the Experiment 1 Rep 2 Enrichment was 0.54 log2 and the Experiment 2 Average Enrichment was -0.22 log2. Further, the Experiment 2 Rep 1 Enrichment was -0.16 log2 and the Experiment 2 Rep 2 Enrichment is -0.29 log2.

For “i53 + K33I two-hybrid fusion (designed binder)”, the Experiment 1 Average Enrichment is 2.03 log2, the Experiment 1 Rep 1 Enrichment came out at 1.91 log2, the Experiment 1 Rep 2 Enrichment was 2.14 log2 and the Experiment 2 Average Enrichment stood at 0.91 log2. Moreover, the Experiment 2 Rep 1 Enrichment came to 1.32 log2 and the Experiment 2 Rep 2 Enrichment was found to be 0.5 log2.

Substance “i53 + K33W two-hybrid fusion (designed binder)” yielded an Experiment 1 Average Enrichment of -1.01 log2, an Experiment 1 Rep 1 Enrichment of -2.04 log2, an Experiment 1 Rep 2 Enrichment of 0.01 log2 and an Experiment 2 Average Enrichment of 0.15 log2. The Experiment 2 Rep 1 Enrichment was 0.35 log2 and the Experiment 2 Rep 2 Enrichment was -0.06 log2.

For “i53 + S49G two-hybrid fusion (designed binder)”, the Experiment 1 Average Enrichment was determined as 0.02 log2, the Experiment 1 Rep 1 Enrichment was found to be 0.27 log2, the Experiment 1 Rep 2 Enrichment is -0.23 log2 and the Experiment 2 Average Enrichment is -0.31 log2. The substance also came in with an Experiment 2 Rep 1 Enrichment of -0.57 log2 and an Experiment 2 Rep 2 Enrichment of -0.05 log2.

“i53 + L67C two-hybrid fusion (designed binder)”: the Experiment 1 Average Enrichment came out at 0.04 log2, the Experiment 1 Rep 1 Enrichment is -0.31 log2, the Experiment 1 Rep 2 Enrichment is 0.39 log2 and the Experiment 2 Average Enrichment was 0.73 log2. Also, the Experiment 2 Rep 1 Enrichment came to 0.96 log2 and the Experiment 2 Rep 2 Enrichment turned out to be 0.5 log2.

With “i53 + K33V two-hybrid fusion (designed binder)”, the Experiment 1 Average Enrichment stood at 2.45 log2, the Experiment 1 Rep 1 Enrichment came out at 2.71 log2, the Experiment 1 Rep 2 Enrichment amounted to 2.19 log2 and the Experiment 2 Average Enrichment stood at 1.75 log2. Besides, the Experiment 2 Rep 1 Enrichment was 2.03 log2 and the Experiment 2 Rep 2 Enrichment is 1.46 log2.

In turn, “i53 + K29M two-hybrid fusion (designed binder)” registered an Experiment 1 Average Enrichment of 1.6 log2, an Experiment 1 Rep 1 Enrichment of 1.72 log2, an Experiment 1 Rep 2 Enrichment of 1.48 log2 and an Experiment 2 Average Enrichment of 0.9 log2. The Experiment 2 Rep 1 Enrichment was 1.23 log2, the Experiment 2 Rep 2 Enrichment stood at 0.57 log2, the Percent GFP Positive Rep 1 stood at 23.9% and the Percent GFP Positive Rep 2 was 16.5%. Further, the Percent GFP Positive Rep 3 was determined as 17.8%.
